Reference: publication PMC2756588

T1: Lsb4, P32793
T1 sequence (P32793 402-468, looked up): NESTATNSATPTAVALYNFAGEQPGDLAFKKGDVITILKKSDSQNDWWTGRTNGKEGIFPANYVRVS

T2: Pin3, Q06449
T2 sequence (Q06449 53-122, looked up): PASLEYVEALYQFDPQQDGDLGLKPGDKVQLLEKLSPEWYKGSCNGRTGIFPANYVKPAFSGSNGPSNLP

T3: Nbp2, Q12163
T3 sequence (Q12163 103-180, looked up): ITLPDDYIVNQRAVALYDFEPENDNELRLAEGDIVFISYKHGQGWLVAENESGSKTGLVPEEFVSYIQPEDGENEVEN

T4: Cdc25, P04821
T4 sequence (P04821 50-136, looked up): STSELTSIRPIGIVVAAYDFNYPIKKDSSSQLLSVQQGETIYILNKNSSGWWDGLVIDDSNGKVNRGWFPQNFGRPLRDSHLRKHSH

T5: Boi1, P38041
T5 sequence (P38041 1-86, looked up): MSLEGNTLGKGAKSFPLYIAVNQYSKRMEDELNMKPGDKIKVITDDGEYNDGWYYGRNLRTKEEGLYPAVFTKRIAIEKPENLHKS

T6: Lsb3, P43603
T6 sequence (P43603 385-451, looked up): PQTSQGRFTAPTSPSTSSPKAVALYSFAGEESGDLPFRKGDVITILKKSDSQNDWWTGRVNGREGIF

T7: Fus1, P11710
T7 sequence (P11710 432-512, looked up): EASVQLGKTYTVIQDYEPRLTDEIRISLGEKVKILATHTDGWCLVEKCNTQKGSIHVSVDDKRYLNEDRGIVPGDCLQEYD

T8: Lsb1, P53281
T8 sequence (P53281 45-122, looked up): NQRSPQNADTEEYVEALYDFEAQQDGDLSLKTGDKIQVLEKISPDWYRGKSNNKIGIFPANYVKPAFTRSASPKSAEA

T9: Cyk3, Q07533
T9 sequence (Q07533 1-83, looked up): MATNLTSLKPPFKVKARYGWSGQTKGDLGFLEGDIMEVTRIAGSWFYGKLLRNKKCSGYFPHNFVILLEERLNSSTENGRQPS

T10: Hof1, Q05080
T10 sequence (Q05080 590-669, looked up): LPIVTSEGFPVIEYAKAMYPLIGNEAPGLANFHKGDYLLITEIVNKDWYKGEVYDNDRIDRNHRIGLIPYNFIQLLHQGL

T11: Hse1, P38753
T11 sequence (P38753 208-285, looked up): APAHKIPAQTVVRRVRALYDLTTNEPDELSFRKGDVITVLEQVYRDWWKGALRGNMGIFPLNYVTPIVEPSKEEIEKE

T12: Sla1-2, P32790
T12 sequence (P32790 60-140, looked up): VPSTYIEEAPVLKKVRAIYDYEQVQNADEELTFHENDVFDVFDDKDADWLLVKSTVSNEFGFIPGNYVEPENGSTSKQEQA

T13: Abp1, P15891
T13 sequence (P15891 535-592, looked up): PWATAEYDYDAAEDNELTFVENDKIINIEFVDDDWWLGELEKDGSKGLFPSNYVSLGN

T14: Sla1-3, P32790
T14 sequence (P32790 344-424, looked up): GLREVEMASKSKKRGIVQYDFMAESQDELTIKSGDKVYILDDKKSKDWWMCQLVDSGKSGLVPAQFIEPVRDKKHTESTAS

T15: Myo5, Q04439
T15 sequence (Q04439 1072-1160, looked up): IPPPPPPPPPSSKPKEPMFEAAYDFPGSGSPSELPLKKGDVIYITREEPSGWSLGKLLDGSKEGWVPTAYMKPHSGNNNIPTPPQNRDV

T16: Pex13, P80667
T16 sequence (P80667 295-386, looked up): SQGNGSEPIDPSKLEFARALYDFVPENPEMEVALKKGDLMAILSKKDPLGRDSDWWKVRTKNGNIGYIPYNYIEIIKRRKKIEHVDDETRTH

T17: Boi2, P39969
T17 sequence (P39969 32-116, looked up): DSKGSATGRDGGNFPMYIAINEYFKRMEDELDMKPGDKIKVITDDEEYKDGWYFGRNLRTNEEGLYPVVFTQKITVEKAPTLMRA

T18: Bzz1-1, P38822
T18 sequence (P38822 478-572, looked up): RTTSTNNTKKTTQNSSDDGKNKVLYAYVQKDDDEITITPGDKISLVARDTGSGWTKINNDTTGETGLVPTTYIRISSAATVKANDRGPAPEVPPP

T19: Bzz1-2, P38822
T19 sequence (P38822 568-633, looked up): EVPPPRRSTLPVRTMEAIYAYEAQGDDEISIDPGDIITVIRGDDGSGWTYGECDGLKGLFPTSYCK

T20: Bbc1, P47068
T20 sequence (P47068 1-78, looked up): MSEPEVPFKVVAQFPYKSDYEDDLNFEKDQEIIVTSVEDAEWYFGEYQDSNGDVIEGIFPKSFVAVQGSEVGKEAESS

T21: Bud14, P27637
T21 sequence (P27637 247-328, looked up): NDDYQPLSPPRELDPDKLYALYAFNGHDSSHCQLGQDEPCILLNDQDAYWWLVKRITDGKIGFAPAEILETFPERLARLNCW

B1: unnamed (peptide)
chain: NLDRSKISLPDFDDE
B2: unnamed (peptide)
chain: AIPPPVPNRPGGTTN
B3: unnamed (peptide)
chain: DAPASKPSVPPRNYF
B4: unnamed (peptide)
chain: FYNRTAFQLPGDARV
B5: unnamed (peptide)
chain: GAGERPRLVPRPINV
B6: unnamed (peptide)
chain: MARRRLPDRPPNGIG

target: T1, Lsb4, P32793; assay: SPOT array; settings: median of control spots 397

Row | SPOT intensity | Binder
1 | 5 | B1
2 | 222 | B2
3 | 231 | B3
4 | 0 | B4
5 | 105 | B5
6 | 533 | B6

target: T2, Pin3, Q06449; assay: SPOT array; settings: median of control spots 2171

Row | SPOT intensity | Binder
7 | 8 | B1
8 | 48 | B2
9 | 23 | B3
10 | 151 | B4
11 | 5 | B5
12 | 91 | B6

target: Sho1, P40073; assay: SPOT array; settings: median of control spots 1148
Sequence (P40073 287-367): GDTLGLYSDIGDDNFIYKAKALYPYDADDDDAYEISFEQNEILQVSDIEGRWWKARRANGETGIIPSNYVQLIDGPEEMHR

Row | SPOT intensity | Binder
13 | 16 | B1
14 | 0 | B2
15 | 0 | B3
16 | 4 | B4
17 | 4 | B5
18 | 393 | B6

target: Rvs167, P39743; assay: SPOT array; settings: median of control spots 2707
Sequence (P39743 419-482): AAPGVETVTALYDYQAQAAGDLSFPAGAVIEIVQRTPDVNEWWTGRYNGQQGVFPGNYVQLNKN

Row | SPOT intensity | Binder
19 | 6 | B1
20 | 1430 | B2
21 | 58 | B3
22 | 0 | B4
23 | 4 | B5
24 | 1590 | B6

target: T3, Nbp2, Q12163; assay: SPOT array; settings: median of control spots 357

Row | SPOT intensity | Binder
25 | 6 | B1
26 | 1 | B2
27 | 2 | B3
28 | 2 | B4
29 | 2 | B5
30 | 3 | B6

target: T4, Cdc25, P04821; assay: SPOT array; settings: median of control spots 969

Row | SPOT intensity | Binder
31 | 35 | B1
32 | 0 | B2
33 | 0 | B3
34 | 0 | B4
35 | 18 | B5
36 | 14 | B6

target: T5, Boi1, P38041; assay: SPOT array; settings: median of control spots 1162

Row | SPOT intensity | Binder
37 | 7 | B1
38 | 1 | B2
39 | 0 | B3
40 | 0 | B4
41 | 3 | B5
42 | 0 | B6

target: T6, Lsb3, P43603; assay: SPOT array; settings: median of control spots 406

Row | SPOT intensity | Binder
43 | 0 | B1
44 | 453 | B2
45 | 125 | B3
46 | 2 | B4
47 | 60 | B5
48 | 175 | B6

target: Bem1-1, P29366; assay: SPOT array; settings: median of control spots 4282
Sequence (P29366 55-141): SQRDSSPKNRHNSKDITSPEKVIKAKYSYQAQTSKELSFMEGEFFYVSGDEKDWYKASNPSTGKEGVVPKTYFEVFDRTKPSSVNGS

Row | SPOT intensity | Binder
49 | 3 | B1
50 | 1 | B2
51 | 0 | B3
52 | 0 | B4
53 | 3 | B5
54 | 0 | B6

target: T7, Fus1, P11710; assay: SPOT array; settings: median of control spots 1200

Row | SPOT intensity | Binder
55 | 4 | B1
56 | 0 | B2
57 | 0 | B3
58 | 0 | B4
59 | 0 | B5
60 | 0 | B6

target: T8, Lsb1, P53281; assay: SPOT array; settings: median of control spots 388

Row | SPOT intensity | Binder
61 | 84 | B1
62 | 948 | B2
63 | 1310 | B3
64 | 2060 | B4
65 | 18 | B5
66 | 587 | B6

target: T9, Cyk3, Q07533; assay: SPOT array; settings: median of control spots 1451

Row | SPOT intensity | Binder
67 | 4 | B1
68 | 2 | B2
69 | 1 | B3
70 | 0 | B4
71 | 3 | B5
72 | 0 | B6

target: T10, Hof1, Q05080; assay: SPOT array; settings: median of control spots 4086

Row | SPOT intensity | Binder
73 | 8 | B1
74 | 1 | B2
75 | 0 | B3
76 | 0 | B4
77 | 11 | B5
78 | 130 | B6

target: T11, Hse1, P38753; assay: SPOT array; settings: median of control spots 1727

Row | SPOT intensity | Binder
79 | 3 | B1
80 | 22 | B2
81 | 0 | B3
82 | 2 | B4
83 | 7 | B5
84 | 126 | B6

target: T12, Sla1-2, P32790; assay: SPOT array; settings: median of control spots 712

Row | SPOT intensity | Binder
85 | 1 | B1
86 | 0 | B2
87 | 0 | B3
88 | 0 | B4
89 | 1 | B5
90 | 1 | B6

target: Myo3, P36006; assay: SPOT array; settings: median of control spots 468

Row | SPOT intensity | Binder
91 | 1 | B1
92 | 8 | B2
93 | 0 | B3
94 | 1 | B4
95 | 0 | B5
96 | 15 | B6

target: T13, Abp1, P15891; assay: SPOT array; settings: median of control spots 935

Row | SPOT intensity | Binder
97 | 23 | B1
98 | 7 | B2
99 | 17 | B3
100 | 3 | B4
101 | 9 | B5
102 | 113 | B6

target: T14, Sla1-3, P32790; assay: SPOT array; settings: median of control spots 5475

Row | SPOT intensity | Binder
103 | 2 | B1
104 | 1 | B2
105 | 12 | B3
106 | 5 | B4
107 | 0 | B5
108 | 36 | B6

target: T15, Myo5, Q04439; assay: SPOT array; settings: median of control spots 471

Row | SPOT intensity | Binder
109 | 0 | B1
110 | 0 | B2
111 | 0 | B3
112 | 1 | B4
113 | 1 | B5
114 | 5 | B6

target: T16, Pex13, P80667; assay: SPOT array; settings: median of control spots 1341

Row | SPOT intensity | Binder
115 | 3 | B1
116 | 375 | B2
117 | 91 | B3
118 | 6 | B4
119 | 24 | B5
120 | 99 | B6

target: GST; assay: SPOT array; settings: median of control spots 978

Row | SPOT intensity | Binder
121 | 36 | B1
122 | 0 | B2
123 | 0 | B3
124 | 0 | B4
125 | 0 | B5
126 | 0 | B6

target: Bem1-2, P29366; assay: SPOT array; settings: median of control spots 4347
Sequence (P29366 139-227): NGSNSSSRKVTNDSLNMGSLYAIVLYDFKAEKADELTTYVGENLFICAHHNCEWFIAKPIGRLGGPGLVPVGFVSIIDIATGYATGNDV

Row | SPOT intensity | Binder
127 | 0 | B1
128 | 1 | B2
129 | 0 | B3
130 | 1 | B4
131 | 1 | B5
132 | 78 | B6

target: T17, Boi2, P39969; assay: SPOT array; settings: median of control spots 1161

Row | SPOT intensity | Binder
133 | 2 | B1
134 | 0 | B2
135 | 0 | B3
136 | 0 | B4
137 | 0 | B5
138 | 0 | B6

target: T18, Bzz1-1, P38822; assay: SPOT array; settings: median of control spots 4446

Row | SPOT intensity | Binder
139 | 3 | B1
140 | 2 | B2
141 | 0 | B3
142 | 2 | B4
143 | 1 | B5
144 | 0 | B6

target: T19, Bzz1-2, P38822; assay: SPOT array; settings: median of control spots 4538

Row | SPOT intensity | Binder
145 | 3 | B1
146 | 0 | B2
147 | 0 | B3
148 | 0 | B4
149 | 0 | B5
150 | 160 | B6

target: T20, Bbc1, P47068; assay: SPOT array; settings: median of control spots 796

Row | SPOT intensity | Binder
151 | 15 | B1
152 | 196 | B2
153 | 6 | B3
154 | 0 | B4
155 | 30 | B5
156 | 69 | B6

target: T21, Bud14, P27637; assay: SPOT array; settings: median of control spots 956

Row | SPOT intensity | Binder
157 | 20 | B1
158 | 2 | B2
159 | 0 | B3
160 | 4 | B4
161 | 0 | B5
162 | 4 | B6
